*1 amine or outer side, *2 acyl side, *3 side chain or, on linkers, in order; H or OH if unused. Bridges are numbered along the chain shown (N, C = ends). Primed or numbered codes have the meaning given here. [ ]: non-standard residue; d: D form. The star is where a group is joined. Ttds = 1,13-diamino-4,7,10-trioxatridecan-succinamic acid, NCCCOCCOCCOCCCNC(=O)CCC(=O)*; Ttds(4) = 1,13-diamino-4,7,10-trioxatridecan-succinamic acid; DOTA = O=C(O)CN1CCN(CC(=O)O)CCN(CC(=O)*)CCN(CC(=O)O)CC1; Trp(5-Cl) = N[C@@H](Cc1c[nH]c2ccc(Cl)cc12)C(=O)O; Pyridine(2,6-diCH2) = c1cc(C[*:1])nc(C[*:2])c1; Phe(2,4-Cl2) = N[C@@H](Cc1ccc(Cl)cc1Cl)C(=O)O; Trp(7-aza) = N[C@@H](Cc1c[nH]c2ncccc12)C(=O)O; 2Lut″ = 2,6-lutidylidene linking two thiols; Phe(4-Cl) = N[C@@H](Cc1ccc(Cl)cc1)C(=O)O; Phe(2-Cl) = N[C@@H](Cc1ccccc1Cl)C(=O)O; 1Nal = N[C@@H](Cc1cccc2ccccc12)C(=O)O; mXylylene = c1cc(C[*:1])cc(C[*:2])c1; Hyp = O=C(O)[C@@H]1C[C@@H](O)CN1; Cysteamide = C(CS[*:3])N[*:1]; Thp = NC1(C(=O)O)CCOCC1; Aib = CC(C)(N)C(=O)O

This assay deals with human Gastric Inhibitory Peptide Receptor (GIPR) (human) (UniProt P48546). Description: FACS competition vs biotinylated GIP-057 on CHO-K1-hGIPR cells; category D: pIC50 <=6.0.

B1: Ac-Asp-7Nw-1Ni-Pro-Glu-leu-[Cys(3MeBn)-Aib-Leu-Ile-Cys]-Ttds-Lys(DOTA)-NH2 (peptide)
peptide: Ac-D[Trp(7-aza)][1Nal]PE[dL]C[Aib]LIC-{Ttds(4)-K(DOTA)-NH2}
modifications: linker 7-11 via mXylylene
For the molecule B1, the pIC50 was less than 6 pic50.

B2: Ac-Asp-Trp-5Clw-Hyp-Glu-leu-[Cys(2Lut)-Thp-Leu-Glu-Cys]-NH2 (peptide)
peptide: Ac-DW[Trp(5-Cl)][Hyp]E[dL]C[Thp]LEC-NH2
modifications: linker 7-11 via Pyridine(2,6-diCH2)
SMILES: CC(=O)N[C@@H](CC(=O)O)C(=O)N[C@@H](Cc1c[nH]c2ccccc12)C(=O)N[C@@H](Cc1c[nH]c2ccc(Cl)cc12)C(=O)N1C[C@H](O)C[C@H]1C(=O)N[C@@H](CCC(=O)O)C(=O)N[C@H](CC(C)C)C(=O)N[C@H]1CSCc2cccc(n2)CSC[C@@H](C(N)=O)NC(=O)[C@H](CCC(=O)O)NC(=O)[C@H](CC(C)C)NC(=O)C2(CCOCC2)NC1=O
Regarding B2, the pIC50 is less than 6 pic50.

B3: Ac-Asp-Trp-Ocf-Hyp-Glu-leu-[Cys(2Lut)-Thp-Leu-Ile-Cys]-NH2 (peptide)
peptide: Ac-DW[Phe(2-Cl)][Hyp]E[dL]C[Thp]LIC-NH2
modifications: linker 7-11 via 2Lut″
With B3, the pIC50 was less than 6 pic50.

B4: DOTA-Ttds-Trp-Asp-Pro-5Clw-leu-Glu-[Cys(3MeBn)-Leu-Ile-Aib-AET] (peptide)
peptide: {DOTA-Ttds}-WDP[Trp(5-Cl)][dL]ECLI[Aib][Cysteamide]
modifications: linker 7-11 via mXylylene
Regarding B4, the pIC50 was less than 6 pic50.

B5: Ac-Asp-Trp-5Clw-Hyp-Glu-leu-[Cys(2Lut)-Thp-Leu-Arg-Cys]-NH2 (peptide)
peptide: Ac-DW[Trp(5-Cl)][Hyp]E[dL]C[Thp]LRC-NH2
modifications: linker 7-11 via Pyridine(2,6-diCH2)
SMILES: CC(=O)N[C@@H](CC(=O)O)C(=O)N[C@@H](Cc1c[nH]c2ccccc12)C(=O)N[C@@H](Cc1c[nH]c2ccc(Cl)cc12)C(=O)N1C[C@H](O)C[C@H]1C(=O)N[C@@H](CCC(=O)O)C(=O)N[C@H](CC(C)C)C(=O)N[C@H]1CSCc2cccc(n2)CSC[C@@H](C(N)=O)NC(=O)[C@H](CCCNC(=N)N)NC(=O)[C@H](CC(C)C)NC(=O)C2(CCOCC2)NC1=O
With B5, the pIC50 is less than 6 pic50.

B6: Ac-Asp-Trp-Egm-Hyp-Glu-leu-[Cys(2Lut)-Thp-Leu-Ile-Cys]-NH2 (peptide)
peptide: Ac-DW[Phe(2,4-Cl2)][Hyp]E[dL]C[Thp]LIC-NH2
modifications: linker 7-11 via Pyridine(2,6-diCH2)
Take B6: the pIC50 was less than 6 pic50.

B7: DOTA-Ttds-5Clw-Pro-Glu-leu-Asp-Trp-[Cys(3MeBn)-Ile-Leu-Aib-AET] (peptide)
peptide: {DOTA-Ttds}-[Trp(5-Cl)]PE[dL]DWCIL[Aib][Cysteamide]
modifications: linker 7-11 via mXylylene
As to B7, the pIC50 is less than 6 pic50.

B8: Ac-Asp-Trp-Pcf-Hyp-Glu-leu-[Cys(2Lut)-Thp-Leu-Ile-Cys]-NH2 (peptide)
peptide: Ac-DW[Phe(4-Cl)][Hyp]E[dL]C[Thp]LIC-NH2
modifications: linker 7-11 via 2Lut″
The molecule B8 gave a pIC50 of less than 6 pic50.

Values taken from patent US20250296971A1, “GASTRIC INHIBITORY PEPTIDE RECEPTOR LIGANDS” (priority 2021, published 2025).
